Laboratory results as given in paper PMC7938364, “Multimeric antibodies from antigen-specific human IgM^+ memory B cells restrict Plasmodium parasites” (The Journal of Experimental Medicine, 2021).

Target: T1, recombinant P. falciparum 3D7 MSP1 (p19 fragment) (Plasmodium falciparum (3D7))
T1 construct: merozoite surface protein 1 of P. falciparum 3D7, the 19 kDa C-terminal fragment (MSP1-19, p19); Coated on ELISA plates and used in solution in the BLI without avidity; The ELISA methods say only 'recombinant P. falciparum MSP1'; also called MSP1-19; merozoite surface protein 1 (the 1-19 fragment)
T1 chain: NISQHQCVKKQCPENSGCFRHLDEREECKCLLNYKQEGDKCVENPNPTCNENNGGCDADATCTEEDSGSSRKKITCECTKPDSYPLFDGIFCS
Assay: ELISA; plates coated with recombinant MSP1, AMA1 or OVA (each 5 µg/ml in PBS); purified recombinant antibodies at a maximum of 5-50 nM with 10-fold serial dilutions, 2 h room temperature or overnight 4°C; HRP anti-human IgG1
Settings: both partners purified

B1: MaliM03 m-IgG (antibody, V domains shown)
VH: QVQLQQWGAGLLKPSETLSLTCAVYGGSFSGYYWTWIRQPPGKGLEWIGEINNSGKTNYNPSLKSRVSISIDTSKNQFSLKVTSVTAADTAVYYCARGPQQHLEPPFDYWGHGTLVTVSS
VL: QSVLTQPPSASGTPGQRVTISCSGSNSNIATNYVCWYQQYPGTAPKPLIYRTDQRPSGVPDRFSGSKSGTSASLAISGLRSEDEADYYCATWDDSLSAWVFGGGTKLTVL
notes: VH of MaliM03, as the VH of m1; immunoglobulin gamma-1 heavy chain constant region (vector AbVec-hIgG1) with L309C; human IgM tail piece, 18 amino acids, added to the IgG constant region; as the light chain of m1; Self-assembles into multimers (negative-stain EM); also called multimeric IgG; modified IgG antibody; source: 293T cells, transient transfection, purified from supernatant (HiTrap …)
For B1, the “fold better binding than its monomeric form” value was roughly 10 fold.
